Reference: article PMC5506079, “Neodymium-140 DOTA-LM3: Evaluation of an In Vivo Generator for PET with a Non-Internalizing Vector” (Frontiers in Medicine, 2017)

What was measured:
[1] = tested on: NCI-H727 tumor bearing mice; experiment: Small animal PET/CT tissue quantification, pre-mortem (16 h) and post-mortem; assay type: in vivo, female NMRI nude mice; conditions: for Tumor post-mortem PET signal: mean ± spread over tumors; for Tumor partial volume corrected PET signal (PVC-PET): post-mortem PET divided by S(V); for Kidney PM PET tissue signal / L. tumor PM PET tissue signal / Liver PM PET tissue signal / Lung PM PET tissue signal / Muscle PM PET tissue signal / Pancreas PM PET tissue signal / R. tumor PM PET tissue signal: post mortem scan after 16 h, 3.3–4.3 MBq i.v.
Method: (§1) NCI-H727 lung carcinoid cancer cells (ATCC CRL-5815, LGC Standards) were cultured in RPMI-1640 media supplemented with 10% fetal bovine serum and 1% penicillin-streptomycin (Invitrogen) at 37° C and 5% CO2. Cells in their exponential growth phase and at 80–90% confluence were harvested by trypsinization and resuspended in 1:1 media and matrigel (BD Biosciences) at 5 × 10^7 cells/mL. Subcutaneous tumors were established in female NMRI nude mice (Taconic, Denmark) by inoculation of 5 × 10^6 cells in 100 µL on each flank above the hind limbs in the subcutaneous space. All animal experiments were performed under a protocol approved by the National Animal Experiments Inspectorate of Denmark.
Longitudinal small animal PET/CT imaging (Inveon Multimodality PET/CT scanner, Siemens) was performed with NCI-H727 tumor bearing mice injected intravenously with 3.3–4.3 MBq ^140Nd-DOTA-LM3 (n = 8) or 2.7–3.1 MBq ^140Nd-chloride (n = 3) in 150 µL. Mice were anesthetized with sevoflurane (Abbott Laboratories) during injection and PET/CT imaging. PET data was acquired for 600 s in list mode at 1, 3, and 16 h after injection. The mice were sacrificed after the 16 h time-point and a PET acquisition was performed 2 h post-mortem. Images were reconstructed using a 3D maximum a posteriori algorithm with CT based attenuation correction. CT images were acquired with the following settings: 300 projections, 65 kV, 500 µA, and 400 ms exposure, and reconstructed with an isotropic voxel size of 105 µm. Image analysis was performed using the Inveon Software (Siemens). Region of interests (ROIs) were drawn manually over the tumor regions and other organs based on the CT images and the uptake of ^140Nd-DOTA-LM3 or ^140Nd-chloride quantified as % injected dose per gram tissue (%ID/g).
Throughout the text we have used a unit, %IS/g, to denote the “percent of injected annihilation signal per gram tissue”. This is in contrast to the common unit, %ID/g (percent of injected dose per gram), which is typically used to report relative radiotracer concentrations. We made the decision to change units for two reasons: first because the EC-delayed positron is not guaranteed to be emitted at the same location as the initial EC decay; and second, because the abnormally high energy of positrons emitted in the decay of ^140Pr leads to large partial volume effects which alter the relationship between the decay distribution and the annihilation distribution.
Using the partial volume correction factor S(V), as a function of ROI volume, the PET quantifications from the manuscript can be rescaled. The results are shown in table S1 compared to the ex vivo biodistribution data. […] A more complete approach to the partial volume correction may lead to better agreement for the PET and well-counter data.

[2] = tested on: NCI-H727 tumor bearing mice; experiment: Conventional ex vivo biodistribution (gamma counter); assay type: in vivo, female NMRI nude mice; conditions: for Tumor ex-vivo well counter: 16 h after injection
Method: as §1
Conventional ex vivo biodistribution was performed after the post-mortem scan. Tumors and organs were resected, weighted and the radioactivity was counted in a gamma counter (Wizard^2, PerkinElmer).

[3] = HPLC verification of de-labeling of ^140Pr from DOTA-LM3; assay type: physicochemical; conditions: reverse-phase C-18 radio-HPLC trace vs LSC of fractions
Method: Samples of ^140Nd-DOTA-LM3 were injected onto a reverse-phase C-18 (Luna 3uC18(2)(n) 100 A 100 × 2 mm 3 μm, Phenomenex) column at a flow rate of 0.5 mL/min starting from 0% acetonitrile in water, and reaching 100% over a 15 min gradient. Elution was monitored with a radio detector. The entire effluent was collected in 1 min intervals (500 µL each) and quantified 4 days after collection by liquid scintillation counting on a HIDEX 300 SL spectrometer.

1,4,7,10- tetraazacyclododecane, 1,4,7- tri acetic acid, 10- acetamide N - p-Cl-Phecyclo(d-Cys-Tyr-d-4-amino-Phe(carbamoyl)-Lys-Thr-Cys)d-Tyr-NH2 (disulfide) [^140Nd-DOTA-LM3, ^140Nd reacted with the somatostatin analogue DOTA-LM3, a non-internalizing vector; the printed name is that of unlabeled DOTA-LM3]
Tumor post-mortem PET signal ([1]; 2.5MBq/nmol): 0.19 ±0.07 %IS/g | Tumor partial volume corrected PET signal (PVC-PET) ([1]; 2.5MBq/nmol): 1.5 ±0.4 %ID/g | Tumor post-mortem PET signal ([1]; 5MBq/nmol): 0.40 ±0.15 %IS/g | Tumor partial volume corrected PET signal (PVC-PET) ([1]; 5MBq/nmol): 3.0 ±1.0 %ID/g | Fraction of in situ produced ^140Pr washed out of the pancreas before decay ([1]; higher specific activity (5 MBq/nmol), pre- vs post-mortem PET at 16 h, n = 4, mean ± SD): 56 ± 7% | Kidney PM PET tissue signal ([1]; subject 1, 5 MBq/nmol): 1.41 %IS/g | L. tumor PM PET tissue signal ([1]; subject 1, 5 MBq/nmol): 0.38 %IS/g | Liver PM PET tissue signal ([1]; subject 1, 5 MBq/nmol): 0.21 %IS/g | Lung PM PET tissue signal ([1]; subject 1, 5 MBq/nmol): 0.06 %IS/g | Muscle PM PET tissue signal ([1]; subject 1, 5 MBq/nmol): 0.08 %IS/g | Pancreas PM PET tissue signal ([1]; subject 1, 5 MBq/nmol): 1.79 %IS/g | R. tumor PM PET tissue signal ([1]; subject 1, 5 MBq/nmol): 0.29 %IS/g | Kidney PM PET tissue signal ([1]; subject 2, 5 MBq/nmol): 1.26 %IS/g | L. tumor PM PET tissue signal ([1]; subject 2, 5 MBq/nmol): 0.35 %IS/g | Liver PM PET tissue signal ([1]; subject 2, 5 MBq/nmol): 0.17 %IS/g | Lung PM PET tissue signal ([1]; subject 2, 5 MBq/nmol): 0.08 %IS/g | Muscle PM PET tissue signal ([1]; subject 2, 5 MBq/nmol): 0.07 %IS/g | Pancreas PM PET tissue signal ([1]; subject 2, 5 MBq/nmol): 2.12 %IS/g | R. tumor PM PET tissue signal ([1]; subject 2, 5 MBq/nmol): 0.41 %IS/g | Kidney PM PET tissue signal ([1]; subject 3, 5 MBq/nmol): 1.76 %IS/g | L. tumor PM PET tissue signal ([1]; subject 3, 5 MBq/nmol): 0.68 %IS/g | Liver PM PET tissue signal ([1]; subject 3, 5 MBq/nmol): 0.25 %IS/g | Lung PM PET tissue signal ([1]; subject 3, 5 MBq/nmol): 0.08 %IS/g | Muscle PM PET tissue signal ([1]; subject 3, 5 MBq/nmol): 0.06 %IS/g | Pancreas PM PET tissue signal ([1]; subject 3, 5 MBq/nmol): 2.56 %IS/g | R. tumor PM PET tissue signal ([1]; subject 3, 5 MBq/nmol): 0.44 %IS/g | Kidney PM PET tissue signal ([1]; subject 4, 5 MBq/nmol): 1.15 %IS/g | L. tumor PM PET tissue signal ([1]; subject 4, 5 MBq/nmol): 0.24 %IS/g | Liver PM PET tissue signal ([1]; subject 4, 5 MBq/nmol): 0.12 %IS/g | Lung PM PET tissue signal ([1]; subject 4, 5 MBq/nmol): 0.04 %IS/g | Muscle PM PET tissue signal ([1]; subject 4, 5 MBq/nmol): 0.06 %IS/g | Pancreas PM PET tissue signal ([1]; subject 4, 5 MBq/nmol): 2.26 %IS/g | R. tumor PM PET tissue signal ([1]; subject 4, 5 MBq/nmol): 0.18 %IS/g | Kidney PM PET tissue signal ([1]; subject 5, 2.5 MBq/nmol): 1.12 %IS/g | L. tumor PM PET tissue signal ([1]; subject 5, 2.5 MBq/nmol): 0.29 %IS/g | Liver PM PET tissue signal ([1]; subject 5, 2.5 MBq/nmol): 0.20 %IS/g | Muscle PM PET tissue signal ([1]; subject 5, 2.5 MBq/nmol): 0.04 %IS/g | Pancreas PM PET tissue signal ([1]; subject 5, 2.5 MBq/nmol): 0.76 %IS/g | R. tumor PM PET tissue signal ([1]; subject 5, 2.5 MBq/nmol): 0.28 %IS/g | Kidney PM PET tissue signal ([1]; subject 6, 2.5 MBq/nmol): 1.35 %IS/g | L. tumor PM PET tissue signal ([1]; subject 6, 2.5 MBq/nmol): 0.17 %IS/g | Liver PM PET tissue signal ([1]; subject 6, 2.5 MBq/nmol): 0.23 %IS/g | Lung PM PET tissue signal ([1]; subject 6, 2.5 MBq/nmol): 0.08 %IS/g | Muscle PM PET tissue signal ([1]; subject 6, 2.5 MBq/nmol): 0.03 %IS/g | Pancreas PM PET tissue signal ([1]; subject 6, 2.5 MBq/nmol): 1.71 %IS/g | R. tumor PM PET tissue signal ([1]; subject 6, 2.5 MBq/nmol): 0.07 %IS/g | Kidney PM PET tissue signal ([1]; subject 7, 2.5 MBq/nmol): 0.97 %IS/g | L. tumor PM PET tissue signal ([1]; subject 7, 2.5 MBq/nmol): 0.18 %IS/g | Liver PM PET tissue signal ([1]; subject 7, 2.5 MBq/nmol): 0.17 %IS/g | Lung PM PET tissue signal ([1]; subject 7, 2.5 MBq/nmol): 0.08 %IS/g | Muscle PM PET tissue signal ([1]; subject 7, 2.5 MBq/nmol): 0.03 %IS/g | Pancreas PM PET tissue signal ([1]; subject 7, 2.5 MBq/nmol): 0.88 %IS/g | R. tumor PM PET tissue signal ([1]; subject 7, 2.5 MBq/nmol): 0.19 %IS/g | Kidney PM PET tissue signal ([1]; subject 8, 2.5 MBq/nmol): 1.18 %IS/g | L. tumor PM PET tissue signal ([1]; subject 8, 2.5 MBq/nmol): 0.18 %IS/g | Liver PM PET tissue signal ([1]; subject 8, 2.5 MBq/nmol): 0.15 %IS/g | Lung PM PET tissue signal ([1]; subject 8, 2.5 MBq/nmol): 0.04 %IS/g | Muscle PM PET tissue signal ([1]; subject 8, 2.5 MBq/nmol): 0.03 %IS/g | Pancreas PM PET tissue signal ([1]; subject 8, 2.5 MBq/nmol): 0.82 %IS/g | R. tumor PM PET tissue signal ([1]; subject 8, 2.5 MBq/nmol): 0.18 %IS/g | Tumor ex-vivo well counter ([2]; 2.5MBq/nmol): 3.7 ±1.3 %ID/g | Tumor ex-vivo well counter ([2]; 5MBq/nmol): 6.3 ±2.3 %ID/g | Liver tissue accumulation, ex vivo biodistribution ([2]; 16 h after i.v. injection, gamma counter): 3 %ID/g | Pancreas tissue accumulation, ex vivo biodistribution ([2]; 16 h after i.v. injection, high specific activity (5.0 MBq/nmol, 0.5 nmol injected), n = 4, gamma counter): 13 % ID/g | Efficiency of release of ^140Pr from DOTA-LM3 after ^140Nd decay [3]: > 95%
